Results: patent US20260008815A1, “CYCLIC PEPTIDE OR SALT THEREOF, AND USES THEREOF” (FUJIFILM Corporation, priority 2023, published 2026)
Bridge positions count the residues as written; N and C are the ends. Ends that are not written are not given here. COCH2 = acetyl group that carries the bridge

Molecular target: T1, Recombinant Human FGFR2 alpha (IIIc) Fc Chimera Protein, CF (R&D systems, 712-FR-050) (human, UniProt P21802 22-377)
T1 construct: bought; not shown: Fc part of the chimera
Assay: ELISA on plate-bound FGFR2-Fc
Method: First, 5 ng of Recombinant Human FGFR2 alpha (IIIc) Fc Chimera Protein (R&D systems, 712-FR-050) was immobilized in each well of a 96-well plate, and blocked with Pierce Protein-Free (PBS) Blocking Buffer (Thermo, 37572), and a peptide diluted with Can Get Signal Immunoreaction Enhancer Solution I (TOYOBO, NKB-101) was then added and reacted at room temperature for 3 hours. After washing with 0.05% Tween 20-containing phosphate buffered saline (PBS), an anti-Myc antibody (Cell Signaling, 14038S) diluted with Can Get Signal Immunoreaction Enhancer Solution II (TOYOBO, NKB-101) was added and reacted at room temperature for 2 hours. After washing with 0.05% Tween 20-containing PBS, SuperSignal ELISA Femto Substrate (Thermo, 37075) was added, and the luminescence amount was measured. The dose-response relationship was calculated from using the difference between the luminescence amount in the well in which FGFR was immobilized and the luminescence amount in the well in which FGFR was not immobilized, and the concentration of the peptide at the time of reaction, and the binding affinity to FGFR was evaluated according to the following evaluation criteria. The evaluation result preferably satisfies the evaluation criteria A, B, or C.

T1 sequence (P21802 22-377, change not shown): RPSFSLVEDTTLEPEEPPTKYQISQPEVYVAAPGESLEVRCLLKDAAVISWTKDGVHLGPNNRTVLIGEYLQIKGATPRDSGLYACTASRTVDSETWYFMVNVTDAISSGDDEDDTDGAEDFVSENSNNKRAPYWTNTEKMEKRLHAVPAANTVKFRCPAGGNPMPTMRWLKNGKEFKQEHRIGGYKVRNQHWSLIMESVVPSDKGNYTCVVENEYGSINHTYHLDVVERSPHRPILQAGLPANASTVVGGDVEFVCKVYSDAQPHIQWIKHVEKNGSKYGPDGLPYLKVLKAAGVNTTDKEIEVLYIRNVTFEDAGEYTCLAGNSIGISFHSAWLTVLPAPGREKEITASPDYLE

Row | Binder | ELISA luminescence signal at 10 nmol/L peptide, relative to SEQ ID NO: 47 (=1)
1 | YCEENYLLPEQYQYFIYFK(COCH2)Y (thioether 2-19 (inferred)) [cyclic peptide SEQ ID NO: 208] | 0.1 to 0.5 ratio
2 | YCEENYLRPEQYQYFIYFK(COCH2)Y (thioether 2-19 (inferred)) [cyclic peptide SEQ ID NO: 219] | 0.1 to 0.5 ratio
3 | YCEENYLFPEQYQYFIYFK(COCH2)Y (thioether 2-19 (inferred)) [cyclic peptide SEQ ID NO: 211] | ≥ 0.7 ratio
4 | YCEENYLYPEQYQYFIYFK(COCH2)Y (thioether 2-19 (inferred)) [cyclic peptide SEQ ID NO: 212] | ≥ 0.7 ratio
5 | YCEENYLNPEQYQYFIYFK(COCH2)Y (thioether 2-19 (inferred)) [cyclic peptide SEQ ID NO: 214] | ≥ 0.7 ratio
6 | YCEENYLDSEQYQYFIYFK(COCH2)Y (thioether 2-19 (inferred)) [cyclic peptide SEQ ID NO: 230] | ≥ 0.7 ratio
7 | YCEENYLDPSQYQYFIYFK(COCH2)Y (thioether 2-19 (inferred)) [cyclic peptide SEQ ID NO: 246] | ≥ 0.7 ratio
8 | YCEENYLIPEQYQYFIYFK(COCH2)Y (thioether 2-19 (inferred)) [cyclic peptide SEQ ID NO: 209] | 0.1 to 0.5 ratio
9 | YCEENYLDPGQYQYFIYFK(COCH2)Y (thioether 2-19 (inferred)) [cyclic peptide SEQ ID NO: 236] | 0.1 to 0.5 ratio
10 | YCEENYLDPPQYQYFIYFK(COCH2)Y (thioether 2-19 (inferred)) [cyclic peptide SEQ ID NO: 237] | ≥ 0.7 ratio
11 | YCEENYLDPWQYQYFIYFK(COCH2)Y (thioether 2-19 (inferred)) [cyclic peptide SEQ ID NO: 243] | ≥ 0.7 ratio
12 | YCEENYLDPIQYQYFIYFK(COCH2)Y (thioether 2-19 (inferred)) [cyclic peptide SEQ ID NO: 239] | ≥ 0.7 ratio
13 | YCEENYLSPEQYQYFIYFK(COCH2)Y (thioether 2-19 (inferred)) [cyclic peptide SEQ ID NO: 216] | ≥ 0.7 ratio
14 | YCEENYLDPLQYQYFIYFK(COCH2)Y (thioether 2-19 (inferred)) [cyclic peptide SEQ ID NO: 238] | ≥ 0.7 ratio
15 | YCEENYLDPYQYQYFIYFK(COCH2)Y (thioether 2-19 (inferred)) [cyclic peptide SEQ ID NO: 242] | ≥ 0.7 ratio
16 | YCEENYLDGEQYQYFIYFK(COCH2)Y (thioether 2-19 (inferred)) [cyclic peptide SEQ ID NO: 221] | ≥ 0.7 ratio
17 | YCEENYLDFEQYQYFIYFK(COCH2)Y (thioether 2-19 (inferred)) [cyclic peptide SEQ ID NO: 225] | ≥ 0.7 ratio
18 | YCEENYLQPEQYQYFIYFK(COCH2)Y (thioether 2-19 (inferred)) [cyclic peptide SEQ ID NO: 215] | ≥ 0.7 ratio
19 | YCEENYLDPVQYQYFIYFK(COCH2)Y (thioether 2-19 (inferred)) [cyclic peptide SEQ ID NO: 240] | ≥ 0.7 ratio
20 | YCEENYLDLEQYQYFIYFK(COCH2)Y (thioether 2-19 (inferred)) [cyclic peptide SEQ ID NO: 222] | ≥ 0.7 ratio
21 | YCEENYLHPEQYQYFIYFK(COCH2)Y (thioether 2-19 (inferred)) [cyclic peptide SEQ ID NO: 220] | ≥ 0.7 ratio

Row | Binder | ELISA luminescence signal at 10 nmol/L peptide, relative to SEQ ID NO: 47 (=1)
22 | YCEENYLDPNQYQYFIYFK(COCH2)Y (thioether 2-19 (inferred)) [cyclic peptide SEQ ID NO: 244] | ≥ 0.7 ratio
23 | YCEENYLDEEQYQYFIYFK(COCH2)Y (thioether 2-19 (inferred)) [cyclic peptide SEQ ID NO: 233] | ≥ 0.7 ratio
24 | YCEENYLDQEQYQYFIYFK(COCH2)Y (thioether 2-19 (inferred)) [cyclic peptide SEQ ID NO: 229] | ≥ 0.7 ratio
25 | YCEENYLEPEQYQYFIYFK(COCH2)Y (thioether 2-19 (inferred)) [cyclic peptide SEQ ID NO: 218] | ≥ 0.7 ratio
26 | YCEENYLDPFQYQYFIYFK(COCH2)Y (thioether 2-19 (inferred)) [cyclic peptide SEQ ID NO: 241] | ≥ 0.7 ratio
27 | YCEENYLDVEQYQYFIYFK(COCH2)Y (thioether 2-19 (inferred)) [cyclic peptide SEQ ID NO: 224] | ≥ 0.7 ratio
28 | YCEENYLDIEQYQYFIYFK(COCH2)Y (thioether 2-19 (inferred)) [cyclic peptide SEQ ID NO: 223] | ≥ 0.7 ratio
29 | YCEENYLDHEQYQYFIYFK(COCH2)Y (thioether 2-19 (inferred)) [cyclic peptide SEQ ID NO: 235] | ≥ 0.7 ratio
30 | YCEENYLDYEQYQYFIYFK(COCH2)Y (thioether 2-19 (inferred)) [cyclic peptide SEQ ID NO: 226] | ≥ 0.7 ratio
31 | YCEENYLDPTQYQYFIYFK(COCH2)Y (thioether 2-19 (inferred)) [cyclic peptide SEQ ID NO: 247] | ≥ 0.7 ratio
32 | YCEENYLDPDQYQYFIYFK(COCH2)Y (thioether 2-19 (inferred)) [cyclic peptide SEQ ID NO: 248] | ≥ 0.7 ratio
33 | YCEENYLWPEQYQYFIYFK(COCH2)Y (thioether 2-19 (inferred)) [cyclic peptide SEQ ID NO: 213] | 0.5 to 0.7 ratio
34 | YCEENYLDPQQYQYFIYFK(COCH2)Y (thioether 2-19 (inferred)) [cyclic peptide SEQ ID NO: 245] | ≥ 0.7 ratio
35 | YCEENYLDDEQYQYFIYFK(COCH2)Y (thioether 2-19 (inferred)) [cyclic peptide SEQ ID NO: 232] | ≥ 0.7 ratio
36 | YCEENYLDREQYQYFIYFK(COCH2)Y (thioether 2-19 (inferred)) [cyclic peptide SEQ ID NO: 234] | ≥ 0.7 ratio
37 | YCEENYLTPEQYQYFIYFK(COCH2)Y (thioether 2-19 (inferred)) [cyclic peptide SEQ ID NO: 217] | ≥ 0.7 ratio
38 | YCEENYLDWEQYQYFIYFK(COCH2)Y (thioether 2-19 (inferred)) [cyclic peptide SEQ ID NO: 227] | ≥ 0.7 ratio
39 | YCEENYLDNEQYQYFIYFK(COCH2)Y (thioether 2-19 (inferred)) [cyclic peptide SEQ ID NO: 228] | ≥ 0.7 ratio
40 | YCEENYLDPRQYQYFIYFK(COCH2)Y (thioether 2-19 (inferred)) [cyclic peptide SEQ ID NO: 249] | ≥ 0.7 ratio
41 | YCEENYLDTEQYQYFIYFK(COCH2)Y (thioether 2-19 (inferred)) [cyclic peptide SEQ ID NO: 231] | ≥ 0.7 ratio
42 | YCEENYLVPEQYQYFIYFK(COCH2)Y (thioether 2-19 (inferred)) [cyclic peptide SEQ ID NO: 210] | 0.1 to 0.5 ratio
